Data published in the supplement of paper PMC9112550, “Optimization of the antimicrobial peptide Bac7 by deep mutational scanning” (BMC Biology, 2022).

System: Escherichia coli TOP10
Experiment: shrunken log2 fold change of peptide-encoding DNA abundance (4.5 h post-induction vs induction); higher = less antimicrobial activity (less host growth inhibition)
Settings: time post-induction: 4.5 h; library: site-saturation at positions 5, 18, 19, 20
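Note: peptides expressed intracellularly from a pBAD plasmid library in pooled LB shake-flask culture, induced with 0.3% L-arabinose, DNA abundance read by NGS, three biological replicates, DESeq2 with apeglm shrinkage.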

Point of comparison: RRIRHRPPRLPRPRPRPRNYPRP, “shrunken log2 fold change” value -0.282. Against it:
- RRIRPRPPRLPRPRPRPIWAPRP — higher, 0.384
- RRIRYRPPRLPRPRPRPYYKPRP — lower, -0.534
- RRIRTRPPRLPRPRPRPWFFPRP — within 0.2 log units, -0.0908
- RRIRPRPPRLPRPRPRPPVSPRP — higher, 0.0379
- RRIRKRPPRLPRPRPRPQIWPRP — higher, 0.138
- RRIRIRPPRLPRPRPRPANRPRP — within 0.2 log units, -0.159
- RRIRGRPPRLPRPRPRPAQYPRP — higher, 0.233
- RRIRDRPPRLPRPRPRPDMPPRP — higher, -0.0262
- RRIRKRPPRLPRPRPRPYSRPRP — higher, -0.0735
- RRIRMRPPRLPRPRPRPRDTPRP — higher, 0.964
- RRIRFRPPRLPRPRPRPCMPPRP — within 0.2 log units, -0.35
- RRIRRRPPRLPRPRPRPIGLPRP — within 0.2 log units, -0.0953
- RRIRMRPPRLPRPRPRPGQTPRP — higher, -0.00931
- RRIRHRPPRLPRPRPRPSHDPRP — higher, -0.0756
- RRIRGRPPRLPRPRPRPFNCPRP — within 0.2 log units, -0.116
- RRIRERPPRLPRPRPRPPISPRP — higher, 0.0892
- RRIRGRPPRLPRPRPRPHKWPRP — higher, 0.183
- RRIRGRPPRLPRPRPRPEPEPRP — higher, 1.51
- RRIRIRPPRLPRPRPRPKNIPRP — lower, -0.733
- RRIRERPPRLPRPRPRPCCCPRP — higher, 0.15
- RRIRWRPPRLPRPRPRPMPVPRP — higher, 0.346
- RRIRQRPPRLPRPRPRPYLCPRP — higher, -0.00822
- RRIRMRPPRLPRPRPRPGNSPRP — lower, -0.616
- RRIRKRPPRLPRPRPRPPRVPRP — higher, 0.648
- RRIRRRPPRLPRPRPRPAPQPRP — higher, 1.39
- RRIRSRPPRLPRPRPRPPNVPRP — higher, 0.0837
- RRIRNRPPRLPRPRPRPWYCPRP — within 0.2 log units, -0.451
- RRIRGRPPRLPRPRPRPRAQPRP — higher, 0.778
- RRIRGRPPRLPRPRPRPNGKPRP — higher, 0.311
- RRIRCRPPRLPRPRPRPVAVPRP — higher, -0.043
- RRIRERPPRLPRPRPRPNIFPRP — within 0.2 log units, -0.302
- RRIRRRPPRLPRPRPRPPCGPRP — higher, 0.324
- RRIRCRPPRLPRPRPRPAVFPRP — within 0.2 log units, -0.127
- RRIRMRPPRLPRPRPRPLYFPRP — within 0.2 log units, -0.302
- RRIRTRPPRLPRPRPRPDGMPRP — higher, 0.0749
- RRIRGRPPRLPRPRPRPCHHPRP — higher, -0.00543
- RRIRHRPPRLPRPRPRPNKRPRP — within 0.2 log units, -0.198
- RRIRCRPPRLPRPRPRPIIYPRP — lower, -0.739
- RRIRMRPPRLPRPRPRPFFNPRP — within 0.2 log units, -0.0839
- RRIRVRPPRLPRPRPRPEATPRP — higher, 0.92
- RRIRHRPPRLPRPRPRPHDHPRP — lower, -1.24
- RRIRFRPPRLPRPRPRPNHCPRP — higher, -0.0425
- RRIRGRPPRLPRPRPRPSYHPRP — within 0.2 log units, -0.299
- RRIRKRPPRLPRPRPRPRRKPRP — higher, 0.969
- RRIRYRPPRLPRPRPRPVFYPRP — lower, -1.05
- RRIRMRPPRLPRPRPRPPSRPRP — higher, 1.01
- RRIRKRPPRLPRPRPRPQWAPRP — higher, -0.0368
- RRIRTRPPRLPRPRPRPDYNPRP — higher, -0.0768
- RRIRGRPPRLPRPRPRPYIGPRP — higher, 0.018
- RRIRTRPPRLPRPRPRPSTGPRP — within 0.2 log units, -0.285
- RRIRSRPPRLPRPRPRPDFGPRP — higher, 0.0573
- RRIRPRPPRLPRPRPRPYKAPRP — within 0.2 log units, -0.183
- RRIRMRPPRLPRPRPRPEHMPRP — higher, 0.147
- RRIRDRPPRLPRPRPRPLDNPRP — higher, -0.0187
- RRIRNRPPRLPRPRPRPHQPPRP — higher, 0.0075
- RRIRERPPRLPRPRPRPFLAPRP — higher, 0.0854
- RRIRSRPPRLPRPRPRPYVVPRP — within 0.2 log units, -0.314
- RRIRIRPPRLPRPRPRPHNVPRP — within 0.2 log units, -0.414
- RRIRRRPPRLPRPRPRPWKMPRP — higher, -0.00577
- RRIRTRPPRLPRPRPRPDTWPRP — higher, 0.0221
- RRIRARPPRLPRPRPRPKEQPRP — within 0.2 log units, -0.111
- RRIRKRPPRLPRPRPRPFWNPRP — higher, -0.0468
- RRIRCRPPRLPRPRPRPMKVPRP — within 0.2 log units, -0.126
- RRIRKRPPRLPRPRPRPFAGPRP — higher, 0.191
- RRIRHRPPRLPRPRPRPETGPRP — higher, -0.0213
- RRIRQRPPRLPRPRPRPSSDPRP — lower, -0.609
- RRIRTRPPRLPRPRPRPKWQPRP — higher, 0.0171
- RRIRIRPPRLPRPRPRPTQCPRP — lower, -0.65
- RRIRFRPPRLPRPRPRPLLPPRP — within 0.2 log units, -0.142
- RRIRFRPPRLPRPRPRPDKGPRP — higher, -0.0555
- RRIRVRPPRLPRPRPRPMATPRP — within 0.2 log units, -0.182
- RRIRPRPPRLPRPRPRPGYTPRP — higher, -0.0764
- RRIRERPPRLPRPRPRPFSKPRP — higher, -0.0819
- RRIRHRPPRLPRPRPRPVQWPRP — higher, 0.0118
- RRIRWRPPRLPRPRPRPEIEPRP — higher, 0.193
- RRIRLRPPRLPRPRPRPYTTPRP — lower, -0.488
- RRIRQRPPRLPRPRPRPAAAPRP — higher, 0.258
- RRIRWRPPRLPRPRPRPHQVPRP — within 0.2 log units, -0.145
- RRIRPRPPRLPRPRPRPKKNPRP — higher, 0.0249
- RRIRMRPPRLPRPRPRPKMVPRP — higher, 2.27
- RRIRDRPPRLPRPRPRPRVWPRP — higher, 0.352
- RRIRCRPPRLPRPRPRPSSYPRP — lower, -0.531
- RRIRARPPRLPRPRPRPPPMPRP — higher, 1.1
- RRIRTRPPRLPRPRPRPFMSPRP — higher, 0.0219
- RRIRCRPPRLPRPRPRPTALPRP — higher, 0.216
- RRIRHRPPRLPRPRPRPFGHPRP — within 0.2 log units, -0.233
- RRIRPRPPRLPRPRPRPGNAPRP — higher, 0.34
- RRIRKRPPRLPRPRPRPTKDPRP — higher, 0.522
- RRIRGRPPRLPRPRPRPRVYPRP — higher, 0.35
- RRIRYRPPRLPRPRPRPDLNPRP — higher, -0.0755
- RRIRWRPPRLPRPRPRPYQSPRP — lower, -0.583
- RRIRGRPPRLPRPRPRPFLIPRP — higher, -0.0796
- RRIRERPPRLPRPRPRPMQPPRP — higher, -0.0115
- RRIRPRPPRLPRPRPRPVLRPRP — higher, 0.303
- RRIRARPPRLPRPRPRPIDVPRP — lower, -0.641
- RRIRSRPPRLPRPRPRPPMRPRP — higher, 1.02
- RRIRVRPPRLPRPRPRPWLKPRP — higher, 0.151
- RRIRWRPPRLPRPRPRPAICPRP — within 0.2 log units, -0.0928
- RRIRCRPPRLPRPRPRPHMWPRP — lower, -0.555
- RRIRIRPPRLPRPRPRPNDSPRP — within 0.2 log units, -0.137
- RRIRTRPPRLPRPRPRPYRLPRP — higher, -0.0268
- RRIRYRPPRLPRPRPRPSCPPRP — lower, -0.851
- RRIRKRPPRLPRPRPRPEIMPRP — higher, 1.31
- RRIRGRPPRLPRPRPRPCHRPRP — higher, 0.207
- RRIRTRPPRLPRPRPRPKNCPRP — within 0.2 log units, -0.0901
- RRIRKRPPRLPRPRPRPMNYPRP — higher, 0.474
- RRIRARPPRLPRPRPRPGGDPRP — higher, 0.604
- RRIRMRPPRLPRPRPRPHMPPRP — within 0.2 log units, -0.206
